This is an account of results in patent CN113388029A (WUHAN INST VIROLOGY CAS, dated 2021).

Experiment [1] addresses T1, 新型冠状病毒囊膜蛋白受体结合域 WH-RBD-TFc (SARS-CoV-2 S蛋白 RBD 319-541 - 凝血酶位点 - 人源IgG1 Fc) (SARS-CoV-2; human, UniProt P0DTC2 319-541). Briefly: ELISA, WH-RBD-TFc coated at 4 μg/mL, Fab titrated, detected with HRP anti-FLAG antibody. (In general: ELISA stands for enzyme-linked immunosorbent assay.)
Experiment [2] has as its target T1, 新型冠状病毒囊膜蛋白受体结合域 WH-RBD-TFc (SARS-CoV-2 …). Briefly: ELISA, WH-RBD-TFc coated at 4 μg/mL, IgG titrated, detected with HRP goat anti-human IgG (Fab).
Experiment [3] has the same target. Briefly: BLI, biotinylated WH-RBD-TFc immobilised (40 μg/ml), IgG titrated in solution (both partners bivalent). A general note: In BLI a coated tip is dipped into the sample, and binding shifts an interference pattern.

B1: Fab-F1-A3 (Fab, V domains shown)
VH: QVQLVESGGGLVQPGGSLRLSCAASGFTVSSNYMSWVRQAPGKGLEWVSVIYSGGSTYYADSVKGRFTISRDNSKNTLYLQMNSLRAEDTAVYYCARGDGSDDYYYGMDVWGQGTTVTVSS
VL: QSVVTQPPSVSGAQGQRVFISCTGNGANIGMGYDVHWYQQLPGRAPKLLIFGNTNRPSGVPDRFSASRSGTSASLAITGLQTADEADYYCQSYDGNLRASVFGGGTKLTVLG
notes: also called 抗体Fab F1-A3
For orientation: EC50 means the concentration giving half of the maximal effect. Read a high EC50 as a need for much substance. The molecule B1 returned an EC50 in experiment [1] of 4 nM.

B2: IgG-F1-A3 (antibody, V domains shown)
VH: QVQLVESGGGLVQPGGSLRLSCAASGFTVSSNYMSWVRQAPGKGLEWVSVIYSGGSTYYADSVKGRFTISRDNSKNTLYLQMNSLRAEDTAVYYCARGDGSDDYYYGMDVWGQGTTVTVSS
VL: QSVVTQPPSVSGAQGQRVFISCTGNGANIGMGYDVHWYQQLPGRAPKLLIFGNTNRPSGVPDRFSASRSGTSASLAITGLQTADEADYYCQSYDGNLRASVFGGGTKLTVLG
Take B2: in experiment [2], the 50% effective concentration (EC50) is around 0.78 nM. The Kd in experiment [3] was 0.013 nM.
